The labels stand for the following.
B1: CPEB3 Ribozyme (parent)
chain: GGGGGCCACAGCAGAAGCGUUCACGUCGCGGCCCCUGUCAGAUUCUGGUGAAUCUGCGAAUUCUGCUGU

Variants of B1 are the subject of the data set. The data set is described as follows: self-cleavage, relative activity (ratio to wild type); higher = more cleavage; co-transcriptional.
As to G47C G50C, the self-cleavage is 1.02.
Take G47C G50U: the self-cleavage was 0.998.
C45G A59U: the self-cleavage is 0.815.
As for C45G A59C, the self-cleavage amounted to 0.638.
Turning to C45G A59G, the self-cleavage amounted to 0.969.
On to C45G G50C, for which the self-cleavage amounted to 1.01.
For C45G G50A the value was 1.01; for U46G G58U, 0.955; for U46C U62C, 0.895.
For U46C U62G the value was 0.916; for U46C U62A, 0.943; for U46C G47C, 1.02.
In the case of U46C G47A, the self-cleavage came out at 0.682.
Regarding U46C G50C, the self-cleavage was 1.04.
Take U46C G50A: the self-cleavage stood at 0.974.
For C45U C63A, the self-cleavage came out at 0.838.
Take C45U G56U: the self-cleavage was found to be 0.897.
Take C45U G56C: the self-cleavage is 0.694.
For C45A U69G the value was 1.06.
With C45A U69C, the self-cleavage worked out at 1.07.
Consider C45A U69A, for which the self-cleavage is 1.
The value for U46A G56A was 0.997; that for G47U A60G was 0.912.
With G47U A60C, the self-cleavage is 0.386.
With G47U A60U, the self-cleavage worked out at 0.552.
The value for C45G C66G was 0.877.
Turning to U46A U55A, the self-cleavage is 0.964.
Turning to U46A U55C, the self-cleavage came to 0.871.
The value for C45G G56A was 0.881; that for U46C G48C was 1.02.
For U46C G48A, the self-cleavage was determined as 1.03.
In the case of U46C G48U, the self-cleavage turned out to be 1.02.
For U46C G68C, the self-cleavage amounted to 0.985.
U46C G68A: the self-cleavage turned out to be 1.
As for G47A U64A, the self-cleavage was found to be 0.958.
Take G47A U64C: the self-cleavage was determined as 0.974.
As to U46A G65U, the self-cleavage was 0.926.
Consider G47A U55G, for which the self-cleavage stood at 0.91.
Consider G47A U55C, for which the self-cleavage was 0.966.
For C45U G48A the value was 0.992; for C45U G48C, 0.975; for C45U G48U, 1.01.
On to U46A G47U, for which the self-cleavage is 0.991.
For U46A G47A the value was 1.01; for U46G A60C, 0.413; for U46G A60G, 0.952.
Take U46G A60U: the self-cleavage was found to be 0.413.
As for U46C A52C, the self-cleavage is 0.943.
For U46C A52G, the self-cleavage came out at 1.
As for G47A A59U, the self-cleavage worked out at 0.872.
Consider C45G U62G, for which the self-cleavage came to 0.81.
C45G U62C: the self-cleavage was found to be 0.798.
In the case of C45U A59U, the self-cleavage is 0.837.
C45U A59G: the self-cleavage amounted to 0.98.
For the variant G47C U49C, the self-cleavage worked out at 0.981.
On to G47C U49G, for which the self-cleavage is 1.
Take U46C U49A: the self-cleavage stood at 0.996.
In the case of U46C U49C, the self-cleavage was 0.913.
Consider C45G U46C, for which the self-cleavage was found to be 0.999.
Regarding C45G U46A, the self-cleavage came to 0.631.
C45G U46G: the self-cleavage amounted to 0.966.
Consider U46A C63U, for which the self-cleavage stood at 1.02.
G47A U61G: the self-cleavage amounted to 0.968.
As for G47A U61C, the self-cleavage was found to be 0.887.
As to C45U C57A, the self-cleavage was determined as 0.32.
As for C45U C57G, the self-cleavage turned out to be 0.319.
For U46G U62C the value was 0.993; for U46G U62G, 0.877; for U46G U62A, 0.948.
U46G U61A: the self-cleavage came out at 0.958.
For the variant U46G U61G, the self-cleavage is 0.878.
The value for U46G U61C was 0.941; that for G47A U67C was 0.976; that for G47A U67G was 1.06.
The value for U46A G58U was 0.988; that for U46A G58C was 0.961; that for U46A G58A was 0.93.
On to U46A U67C, for which the self-cleavage is 1.01.
For the variant U46A U67G, the self-cleavage came to 1.03.
For G47A G56U, the self-cleavage came to 1.01.
For G47A G56A, the self-cleavage was determined as 1.
On to U46C U64A, for which the self-cleavage turned out to be 0.877.
Turning to U46C U64C, the self-cleavage is 0.936.
In the case of U46C U64G, the self-cleavage is 0.852.
The value for G47A C63A was 0.898; that for C45G U55A was 0.797.
For C45G U55C the value was 0.487.
For C45G U55G, the self-cleavage was 0.648.
The value for U46C C57A was 0.373.
For C45G A60U, the self-cleavage was determined as 0.407.
C45G A60G: the self-cleavage amounted to 0.897.
On to C45G A60C, for which the self-cleavage is 0.493.
With U46C A59U, the self-cleavage was 0.847.
Take U46C A59G: the self-cleavage turned out to be 1.03.
As to C45U G50C, the self-cleavage turned out to be 1.02.
On to C45U G50A, for which the self-cleavage came to 1.01.
In the case of G47C C66G, the self-cleavage stood at 0.91.
Consider G47C C66A, for which the self-cleavage turned out to be 0.897.
The value for G47C U67C was 0.993; that for G47C U67G was 1.06; that for C45U G65C was 0.719.
C45U G65U: the self-cleavage was determined as 0.813.
Take U46A G50C: the self-cleavage turned out to be 0.951.
Take U46A G50A: the self-cleavage was determined as 0.974.
As to U46C U55G, the self-cleavage came to 0.768.
With U46C U55C, the self-cleavage was found to be 0.701.
Take U46C U55A: the self-cleavage was determined as 0.773.
Turning to G47C A60U, the self-cleavage was found to be 0.562.
In the case of U46A G68A, the self-cleavage was found to be 1.02.
The value for U46A G68C was 0.97.
Regarding U46C U67A, the self-cleavage amounted to 0.938.
On to U46C U67G, for which the self-cleavage amounted to 0.977.
In the case of U46C U67C, the self-cleavage worked out at 0.962.
The value for C45G U53C was 0.806; that for C45G U53G was 0.858; that for U46C G65A was 0.893.
In the case of U46C G65C, the self-cleavage worked out at 0.615.
As to U46G U64G, the self-cleavage is 0.885.
Regarding U46G U64A, the self-cleavage came to 0.916.
U46G U64C: the self-cleavage is 0.927.
On to U46C A51U, for which the self-cleavage stood at 0.994.
In the case of U46C A51G, the self-cleavage is 0.988.
As to C45G G48A, the self-cleavage was found to be 1.01.
C45G G48C: the self-cleavage is 1.01.
The value for C45G G48U was 1.02; that for G47A A52G was 0.969.
In the case of U46G C57G, the self-cleavage was 0.303.
The value for U46G C57U was 0.391.
For the variant U46G C57A, the self-cleavage was found to be 0.354.
For the variant G47C C54U, the self-cleavage came out at 0.987.
For the variant G47C C54G, the self-cleavage amounted to 0.959.
For the variant U46C G58A, the self-cleavage was determined as 0.979.
Take C45G G65A: the self-cleavage was found to be 0.87.
Take C45G G65U: the self-cleavage was 0.832.
On to C45U C54A, for which the self-cleavage stood at 0.681.
With U46C C66G, the self-cleavage was found to be 0.762.
With U46C C66A, the self-cleavage was 0.763.
In the case of C45U A60U, the self-cleavage is 0.469.
Turning to C45U A60C, the self-cleavage amounted to 0.33.
For C45U A60G the value was 0.9.
For C45U C66A the value was 0.843.
Consider C45U C66G, for which the self-cleavage stood at 0.87.
The value for U46G U69C was 1.07; that for C45U U62A was 0.908.
Regarding C45G U64G, the self-cleavage amounted to 0.739.
In the case of C45G U64C, the self-cleavage was determined as 0.836.
For the variant G47C A52U, the self-cleavage turned out to be 1.05.
As for G47C A52C, the self-cleavage worked out at 0.946.
As to G47C A52G, the self-cleavage is 1.
U46C C63U: the self-cleavage stood at 0.983.
As to U46C C63G, the self-cleavage worked out at 0.796.
With U46C C63A, the self-cleavage is 0.771.
For U46G G50A the value was 0.981.
With U46G G50U, the self-cleavage came out at 0.962.
Regarding C45G C63U, the self-cleavage was determined as 0.964.
As for G47U A51C, the self-cleavage was found to be 0.997.
The value for G47U A51U was 1.01; that for U46G A51U was 1.
For U46G A51C, the self-cleavage stood at 0.949.
With U46G A51G, the self-cleavage was found to be 0.618.
For the variant C45U A51C, the self-cleavage is 0.999.
Consider C45U A51U, for which the self-cleavage came to 0.947.
The value for C45U U61C was 0.887; that for C45U U61A was 0.919.
For U46G A52U the value was 0.981.
Turning to U46G G56C, the self-cleavage was determined as 0.65.
U46G G56U: the self-cleavage turned out to be 0.959.

The values are drawn from the RNAGym collection of RNA variant scans (doi:10.7554/elife.80360).
